Results taken from patent publication US8088892B2, “Inhibitors of proteins from the Rho-GEF family” (Centre National de la Recherche Scientifique (C.N.R.S.), priority 2002, dated 2012).

What was measured:
TrioGEFD2 = TrioGEFD2 (Homo sapiens, UniProt O75962); experiment: Co-immunoprecipitation of HA-TrioGEFD2 with GFP-TRIPα in COS cells; assay type: binding; design: using recombinant GST-TrioGEFD2 (a.a. 1848-2298), TrioDH2 (a.a. 1848-2096); made in house; details: anti-GFP IP, anti-HA western blot
Excerpt: HA-TrioGEFD2 was co-expressed with either GFP-TRIPα (right column) or GFP alone (left column). The upper panel represents the immunoprecipitation (IP) with the anti-GFP antibody (α-GEP), followed by a western-blot (WB) using the anti-HA antibody (α-HA) and the two lower panels represent the expression of the proteins in the cell lysates.
The Inventors next wanted to determine the effect of TRIPα on GEFD2-mediated RhoA activation in intact cells. First, it was checked whether TRIPα could bind to TrioGEFD2 in mammalian cells. For that purpose, vectors expressing the variable region of TRIAPα (TRIPα) fused to GFP in the pEGFP-C3 plasmid (Clontech) were designed. GFP or GFP-TRIPα were co-expressed with pMTHA-TroGEFD2 by transfection of COS cells using Lipofectamine Plus (Life Technologies) according to the manufacturer's protocol. Immunoprecipitation of GFP-tagged constructs from COS cell lysates were done with the polyclonal rabbit anti-GFP antibody (Torrey Pines Biolabs, Inc.).

TrioDH2PH2L2051E = biological target: T1, TrioDH2PH2L2051E (Homo sapiens, UniProt O75962, L2110E); experiment: Binding specificity of aptamers in yeast; design: key: +++^1 and +^1 represent respectively a full and a partial (see FIG. 1) binding capacity; +++^1 and +^1 represent respectively a full and a partial (see FIG. 1) binding capacity; −−^1 represents a lack of binding; details: RhoGEF TrioDH2PH2L2051E
T1 construct: TrioGEFD2 (DH2PH2, amino acids 1848-2298); expressed in transfected cells; host or cells: yeast

Lbc = experiment: In vitro GEF assay on RhoA; assay type: biochemical; design: key to in vitro GEF assay (inhibition): +++^2 and +^2 represent respectively a full and a partial (see FIG. 3) inhibitory effect; +++^2 and +^2 represent respectively a full and a partial (see FIG. 3) inhibitory effect; −−^2 represents a lack of inhibitory effect; details: for Effect on Lbc exchange activity on RhoA: 20-fold molar excess, Lbc 0.4 μM
Description: (§1) To test the specificity of TRIAPα inhibition in vitro, exchange experiments were performed either on RhoA with different RhoA-specific GEFs: Trio GEFD2 (0.4 μM), Kalirin GEFD2 (KalGEFD2, 1.7 μM), p63RhoGEF (Souchet et al., 2002) (0.4 μM) and Lbc (amino acids 172-598; Zheng et al., 1995) (0.4 μM), or on RhoG, with the RhoG-specific GEF domain of Trio (TrioGEFD1, 0.1 μM). Exchange assays were performed with the recombinant GEFs as described in FIG. 2A. Different concentrations of RhoGEFs were used to yield a similar nucleotide exchange efficiency. For each exchange factor, three independent experiments were done in absence (black bar) or in the presence (grey bar) of a 20-fold molar excess of TRIAPα.
(§2) An in vitro guanine nucleotide exchange (GEF) assay was used to test whether the TrioGEFD2-binding aptamers could inhibit the catalytic activity of TrioGEFD2 towards RhoA. For this purpose, the aptamers TRIAPα, TRIAPβ and TRIAPγ (including the Trx gene) were excised from pEG202 as EcoRI/NotI fragments and cloned into pGEX4T1 EcoRI/NotI. The aptamers were then expressed and purified from bacteria as GST fusion proteins, using standard procedures (Smith and Johnson, 1988). GTPase-GST fusion proteins were prepared, loaded with [^3H]GDP and the guanine nucleotide release assays were performed as described (Debant et al., 1996), using recombinant GST-TrioGEFD2 (a.a. 1848-2298), TrioDH2 (a.a. 1848-2096). For each point, 0.3 μM GTPase was mixed with or without 0.4 μM GEF in presence of non-labeled GTP, and the reaction mix was filtered after 0 min and 15 mm reaction at 25° C. The catalytic activity of TrioGEFD2 was thus measured by the decrease of the GTPase-associated radioactivity. The results are expressed as the ratio “exchange after 15 min over exchange after 0 min” (% bound [^3H]GDP-RhoA). To measure the effect of the aptamers on the exchange activity, a 20-fold molar excess of GST-TRIAPs was pre-incubated with GEFD2 (or GEFD1) for 30 min on ice before the exchange assay was carried out. For each experiment, data were obtained in triplicate.
(§3) The effect of GST-TRIAPα on other Rho-GEFs that display in vitro exchange activity on RhoA was next tested to investigate whether TRIAPα inhibition was specific of TrioGEFD2. The exchange activities of the RhoGEF Lbc (a.a. 1-424, FIG. 3)(Zheng et al., 1995) and Dbl (a.a. 495-826, data not shown) were not affected by GST-TRIAPα. The effect of GST-TRIAPα on the catalytic activity of RhoGEFs that display a high sequence similarity with TrioGEFD2 was then tested: the recently identified RhoA-specific p63RhoGEF (Souchet et al., 2002) (a.a. 149-374, 71.5% identity with TrioGEFD2, 0.4 μM) and the second Rho-GEF domain of the Trio family member Kalirin (KalGEFD2, a.a. 1850-2190, 65% identity with TrioGEFD2, 1.7 μM). Different concentrations of RhoGEFs were used to yield similar nucleotide exchange […]. For each exchange factor, three independent experiments were done in absence or in the presence of a 20-fold molar excess of GST-TRIAPα. […] Thus, the in vitro inhibitory activity of TRIAPα was selective for TrioGEFD2 (see table I for summary of the tested RhoGEFs).

p63RhoGEF = biological target: T2, p63RhoGEF (Homo sapiens, UniProt Q86VW2); experiment: In vitro GEF assay on RhoA; assay type: biochemical; design: key to in vitro GEF assay (inhibition): +++^2 and +^2 represent respectively a full and a partial (see FIG. 3) inhibitory effect; +++^2 and +^2 represent respectively a full and a partial (see FIG. 3) inhibitory effect; −−^2 represents a lack of inhibitory effect; details: for Effect on p63RhoGEF exchange activity on RhoA: 20-fold molar excess, p63RhoGEF 0.4 μM
T2 construct: (a.a. 149-374, 71.5% identity with TrioGEFD2, 0.4 μM); made in house
Description: as §1, §2, §3

T2 sequence (Q86VW2 149-374): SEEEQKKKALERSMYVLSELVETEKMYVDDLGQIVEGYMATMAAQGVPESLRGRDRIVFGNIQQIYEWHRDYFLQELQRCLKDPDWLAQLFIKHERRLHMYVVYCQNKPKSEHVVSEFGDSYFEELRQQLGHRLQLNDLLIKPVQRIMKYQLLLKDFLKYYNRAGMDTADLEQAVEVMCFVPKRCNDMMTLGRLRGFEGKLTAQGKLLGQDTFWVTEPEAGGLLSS
Sequence of Lbc (Q12802 1994-2333 limits assumed): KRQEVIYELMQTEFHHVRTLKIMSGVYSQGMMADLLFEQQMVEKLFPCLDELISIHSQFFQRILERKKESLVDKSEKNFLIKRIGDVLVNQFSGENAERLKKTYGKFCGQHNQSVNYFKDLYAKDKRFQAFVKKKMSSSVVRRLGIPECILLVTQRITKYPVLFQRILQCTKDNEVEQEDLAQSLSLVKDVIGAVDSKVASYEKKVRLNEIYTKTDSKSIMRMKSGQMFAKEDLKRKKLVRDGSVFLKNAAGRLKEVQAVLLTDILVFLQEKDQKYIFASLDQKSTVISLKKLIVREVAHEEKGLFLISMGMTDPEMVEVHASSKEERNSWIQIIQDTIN

Molecule	Interaction with TrioGEFD2 in mammalian cells (TrioGEFD2)	Binding in yeast (TrioDH2PH2L2051E)	Effect on Lbc exchange activity on RhoA (Lbc)	Effect on Lbc exchange activity on RhoA (Lbc; listed as GST-TRIAPα)	in vitro GEF assay (inhibition) (Lbc; RhoGEF Lbc)	Effect on p63RhoGEF exchange activity on RhoA (p63RhoGEF)	Effect on p63RhoGEF exchange activity on RhoA (p63RhoGEF; listed as GST-TRIAPα)	in vitro GEF assay (inhibition) (p63RhoGEF; RhoGEF p63RhoGEF)
AREGADGAICGYNLATLVMLGPSERVFCPLCEPCSSDIYELM [TRIPα, 42-amino acid peptide corresponding to the variable region of TRIAPα]	interacts with TrioGEFD2 in mammalian cells							
TRIAPα: aptamer of 154 amino acids: variable region of 42 amino acids inserted into the thioredoxin protein; tested as GST fusion (protein) MSDKIIHLTDDSFDTDVLKADGAILVDFWAEWCGPAREGADGAICGYNLATLVMLGPSERVFCPLCEPCSSDIYELMGPCKMIAPILDEIADEYQGKLTVAKLNIDQNPGTAPKYGIRGIPTLLLFKNGEVASATKVGALSKGQLKEFLDANLA		+++^1	has no effect	not affected	−−^2	has no effect	had no effect	−−^2
